Measured values reported in paper PMC11701102, “Structural insights into the interplay between microtubule polymerases, γ-tubulin complexes and their receptors” (Nature Communications, 2025).

B1: His-Spc72^1-599 (C. albicans), co-expressed in insect cells (domain or fragment, UniProt Q5AGV5 1-599, looked up)
chain: MSNLSINESNDNSNVSILSNKSGAQSSTNSSPNLIVFKQPEDLSIQLQQQQQGTQEDTPEEEEEEEEEMEQITQLEVQQENQPDTLSSSPFISRPNSPLDDIIRPQGTSSPSLTIRDSYSSQVDINISNLHKSLNEMRLSTDPVDNNNNNNKVNKNNPTNSDISNDDIITIDNLTPSRIQPKNISPWRQFRPTLRGSPESTPRSLFQNKPNLKFNNGLSPTNGSRDMVTNNIATTTKSREEELNKRIVNYKIQLKLMKNFLQELIDRNNLDPHEFHTLLRRNNNNIMNNENNPLSTSLSQTSTLEIQHQNLQIELDEALELNKQLYNKIETANKEISDKDLQISNYESRINLINYSVDELIYILINEYDKNNYSHGGSNTTSPGKETLQQSISAQLEVKLNVLKLELMTRLDQSHQYNNKPHDLFTPPYTSSEYGVSTNNVANKNDLEGYIHIIEDLIKTVDELELTCENYKANKNELQNQLVEQINESIRIKNNFQIMSNKFNQLRQSLSEKENDKNLDEFSKNNHQQQQQQQIQQLEQKLIEYEKCITILQDELDQYKQPSDTTNTTNNNNNNNNNNNRSSYSSYNNHRNSSLNELN
notes: Only the CM1 motif is resolved in the cryo-EM map, as a parallel dimeric coiled coil; source: Sf21 insect cells, MultiBac co-expression with γ-TuSC components and FLAG-Stu2 or His-GFP-Mzt1
B2: FLAG-Stu2 (C. albicans, full length) (natural protein, UniProt A0A1D8PTZ8 1-924, looked up)
chain: MSTEEEDYSNLSLEERFVHKVWKVRLQAYEELATNIENSRNESDPIFTSLSLDNLKKMILDSNVVAQETGYNTFNKFLIFGGNAANVSKLKNLGIIGSICEKGLLSSRKNTKEWSVESILLMIEISNDPNSIVEDILPYLTNRLPKLVTGCVSCLASIIENFGCKIISPKPIVPCLSKLFAHADKNVRNETTKLTIELYRWMGDALINALFSDLKPVQQKDLTAAFEKEKGTSPQQKRYTKKQREEIERREQEAAAAAAAAAATTAGNGGGNGDDVDDVEMSDVNGVTDDNEYDPLEFVDPVEVLNKFPSDFDSRISSSKWKDRKEVLEEIIPILEKSPKLITTDDYLPVLRIWAKCMKDANIQVVQLAANCIEFVIKGLGNEFSKYQSVVLTPVVERLKEKKPSVATALDNVLDALFNLSGFGNGVLDEAINGMKLKTPQNKIASANFVKRCLSTTKIPPKTSEIDAIMEVGIKLLSESQEPIRQAATEMIGTLMKITGPRELKPFLEKVDENRKNKINDYYEETAQVKTTMANASKSSSVASGSRNVSTAGGSFSSSTMKPPSKSSQDRKTSSGASSIIPAKRTASSPAKRDEVKNGRGMTARSLAKPNIPSLRPPTNVTQDSSGDGSSFSQQQQQQQVPSTSTGGGSGGAQSMISSVTNEEVNLLKQQIIKLQEEVQNYKNQQESHLKTIKLLEESNNNYREEIESVKRELSNEKRNATITTNHKDTHINNLKSELEKANYRIKDLEQEREINRLQQSNLAFERSNISSSNSRNSFYKPSPNKFAPSDISTGVKRLSIGGEENNHFGGGGGASPNFHNNTIHSTNTTTSTTATASGAGIGTGVGTGTGTGTGTGMGISRPTNSFRSSVNYGSTSSLTSSSRRESMDIDNGADWKRAAEVTLQLKARIERMKARTRSPLNIE
notes: Stu2, C. albicans, full-length Met1 to Glu924; FLAG tag followed by an HRV 3C cleavage site at the 5' end; also called wild-type FLAG-Stu2; source: Sf21 insect cells; not shown: FLAG, N-terminal, kept

Key:
[1] = molecular target: T1, γ-tubulin small complex (γ-TuSC) from C. albicans: His-Spc97, His-Spc98, γ-tubulin (Tub4) (C. albicans, UniProt Q59PZ2 1-871; A0A1D8PS42 1-785; O93807 1-502); test: SEC; FLAG-purified γ-TuSC/His-Spc72^1-599/FLAG-Stu2 on Superose 6 Increase 10/300 in HB100 buffer (40 mM K-HEPES pH 7.4, 100 mM KCl); fractions by SDS-PAGE, Western blot and gel densitometry; ring-like oligomers also seen by negative stain EM; settings: both partners purified
T1 construct: Spc97 (homologue of human GCP2), C. albicans; Spc98 (homologue of human GCP3), C. albicans; γ-tubulin (Tub4), C. albicans; For MST the purified γ-TuSC was labelled with an amine-reactive dye (GREEN-NHS kit); also called γ-TuSC unit; γ-TuRC (as ring of seven γ-TuSCs); source: Sf21 insect cells (baculovirus); copies: 1 + 1 + 2

[2] = molecular target: the molecule itself; test: cryo-EM structure; γ-TuSC/Spc72^1-599/FLAG-Stu2 complex purified via FLAG-Stu2; single particle analysis, γ-TuSC unit within oligomers at 3.6 Å, 14-spoked ring at 8.2 Å
[3] = molecular target: B1; test: SEC; FLAG-purified γ-TuSC/His-Spc72^1-599/FLAG-Stu2 on Superose 6 Increase 10/300 in HB100 buffer (40 mM K-HEPES pH 7.4, 100 mM KCl); fractions by SDS-PAGE, Western blot and gel densitometry; ring-like oligomers also seen by negative stain EM; settings: both partners purified
[4] = molecular target: the molecule itself; test: SEC-MALS + other: mass photometry; FLAG-Stu2 (10 µM) and His-Spc72^291-599 (60 µM) alone or mixed 1:1 (vol), Superdex 200 Increase 5/150, 50 mM Tris-HCl pH 7.5, 150 mM NaCl, room temperature; mass photometry below 40 nM

| Binder | stoichiometry N [1] | stoichiometry N [2] | stoichiometry N [3] | stoichiometry N [4] |
| --- | --- | --- | --- | --- |
| B1 | ~2 Spc72^1-599 per γ-TuSC (Spc97:Spc98:γ-tubulin:Spc72^1-599) | 2 |  |  |
| B2 |  |  | < 2 Stu2 dimers per Spc72 dimer | 2 |
